The values below come from patent US20240254234A1 (NOVIMMUNE, published 2024).

Residue numbers refer to the chain shown, from its start.

A word on the EC50 (read off the curve): it is the concentration at which the effect is half-maximal. Low values mean a more potent agent, high ones a less potent agent. As a reminder, the Kd is the concentration at which binding is half-saturated. Low values mean tighter binding, high ones weaker binding.

Assay [1] deals with T1, PD-L1 on HPAC cells (pre-activated with IFNγ) (human, UniProt Q9NZQ7 19-290).
T1 construct: whole, on cells; also called PD-L1 expressing HPAC cells
As to the kind of experiment: flow cytometry on IFNγ-activated HPAC cells (PD-L1+), anti-human IgG secondary antibody, geometric mean. As for the experimental part: Cells were harvested, checked for viability and counted. 200′000 cells were incubated for 15 minutes at 4° C. with increasing concentrations of the antibodies diluted in FACS buffer (PBS 2% BSA, 0.1% NaN3). Cells were washed twice with cold FACS buffer and re-incubated for further 15 minutes at 4′C with a suitable anti-human IgG secondary antibody. Cells were washed twice with cold FACS buffer and resuspended in 150 μl FACS buffer with a compatible viability marker. Binding of antibodies to living cells was measured by flow cytometry using a Cytoflex Platform (Beckman Coulter). Data was analyzed with FlowJo™ v10 software (BD Life Sciences) and dose-response binding curves were drawn using GiraphPad Prism 9 software.
For orientation: In flow cytometry, cells or beads pass a laser one at a time.

The target of assay [2] is PD-L1 on engineered CHO-K1 artificial Antigen Presenting Cells (aAPC) (Homo sapiens (Human), UniProt Q9NZQ7 19-290). As to the kind of experiment: cell-based or functional assay.
The next assay deals with T2, human CD64 (human, UniProt P12314 16-288).
T2 construct: also called hCD64
As to the kind of experiment: Octet (printed: Octet surface plasmon resonance), n = 1. For orientation: In BLI a coated tip is dipped into the sample, and binding shifts an interference pattern.

Assay [3] deals with T3, human neonatal Fc Receptor (FcRn) (human, UniProt P55899 24-297; P61769 21-119).
T3 construct: also called FcRn (Human)
As to the kind of experiment: Octet (printed: Octet surface plasmon resonance), n = 2.

Assay [4] has as its target T4, cynomolgus neonatal Fc Receptor (FcRn) (cynomolgus, UniProt Q8SPV9 24-297; Q8SPW0 21-119).
T4 construct: also called FcRn (Cynomolgus)
Described as above.

Assay [5] has as its target T5, mouse neonatal Fc Receptor (FcRn) (mouse, UniProt Q61559 22-297; P01887 21-119).
T5 construct: also called FcRn (Mouse)
T5 sequence (looked up) 1: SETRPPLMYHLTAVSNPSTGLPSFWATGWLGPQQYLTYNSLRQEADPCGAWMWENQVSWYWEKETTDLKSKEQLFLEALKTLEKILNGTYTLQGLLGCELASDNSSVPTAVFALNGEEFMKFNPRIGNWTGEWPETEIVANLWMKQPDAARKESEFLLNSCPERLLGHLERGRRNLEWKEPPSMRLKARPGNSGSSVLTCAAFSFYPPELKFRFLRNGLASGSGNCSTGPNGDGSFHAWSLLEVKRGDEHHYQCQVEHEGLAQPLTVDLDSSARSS
T5 sequence (looked up) 2: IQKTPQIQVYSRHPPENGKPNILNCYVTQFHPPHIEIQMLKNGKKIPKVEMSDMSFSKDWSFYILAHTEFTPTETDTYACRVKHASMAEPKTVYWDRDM
Described as above.

The next assay deals with T6, mouse CD32b (mouse, UniProt P08101 30-207).
T6 construct: also called mCD32b
T6 sequence (looked up): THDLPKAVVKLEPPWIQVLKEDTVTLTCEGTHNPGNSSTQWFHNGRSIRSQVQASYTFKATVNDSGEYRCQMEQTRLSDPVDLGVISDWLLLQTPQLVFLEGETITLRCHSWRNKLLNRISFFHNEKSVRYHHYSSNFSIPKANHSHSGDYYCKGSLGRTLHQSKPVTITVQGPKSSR
The assay is described as follows: Octet (printed: Octet surface plasmon resonance).

A further assay deals with T7, mouse CD16 (mouse, UniProt P08508 31-215).
T7 construct: also called mCD16
T7 sequence (looked up): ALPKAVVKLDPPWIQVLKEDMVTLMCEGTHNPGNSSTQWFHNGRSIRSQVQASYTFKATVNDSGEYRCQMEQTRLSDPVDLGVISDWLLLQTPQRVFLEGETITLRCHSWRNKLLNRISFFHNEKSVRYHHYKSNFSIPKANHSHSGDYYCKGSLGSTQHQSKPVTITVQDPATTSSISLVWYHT
The assay is described as follows: Octet (printed: Octet surface plasmon resonance).

For the next assay, the target named is T8, mouse CD64 (mouse, UniProt P26151 25-297).
T8 construct: also called mCD64
T8 sequence (looked up): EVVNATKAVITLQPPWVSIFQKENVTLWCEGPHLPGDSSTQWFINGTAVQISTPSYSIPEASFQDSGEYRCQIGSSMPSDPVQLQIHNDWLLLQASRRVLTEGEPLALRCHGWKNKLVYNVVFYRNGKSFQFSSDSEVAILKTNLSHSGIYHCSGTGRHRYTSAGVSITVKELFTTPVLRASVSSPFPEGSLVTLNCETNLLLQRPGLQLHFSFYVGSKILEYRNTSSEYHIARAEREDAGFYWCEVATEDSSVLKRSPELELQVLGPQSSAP
As to the kind of experiment: Octet (printed: Octet surface plasmon resonance).

For the next assay, the target named is T9, cynomolgus CD28 (cynomolgus, UniProt Q0PDN3 19-152).
T9 construct: Recombinant form not described; also called CD28 (Cynomolgus)
The assay is described as follows: Octet (printed: Octet surface plasmon resonance).

For a further assay, the target named is T10, human CD32b (human, UniProt P31994 43-217).
T10 construct: also called hCD32b
T10 sequence (looked up): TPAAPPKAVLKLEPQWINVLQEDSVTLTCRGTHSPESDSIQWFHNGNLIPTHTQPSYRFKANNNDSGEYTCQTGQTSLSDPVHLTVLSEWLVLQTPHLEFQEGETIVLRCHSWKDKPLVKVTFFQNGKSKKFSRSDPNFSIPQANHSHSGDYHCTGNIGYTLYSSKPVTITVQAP
As to the kind of experiment: Octet (printed: Octet surface plasmon resonance).

The target in a further assay is T11, human CD16b NA2 (human, UniProt O75015 17-200, limits assumed).
T11 construct: also called hCD16b NA2
As to the kind of experiment: Octet (printed: Octet surface plasmon resonance).

The target of the next assay is T12, human CD32a R167 (human, UniProt P12318 36-218).
T12 construct: Allelic variant named only as R167; also called hCD32a R167
T12 sequence (looked up): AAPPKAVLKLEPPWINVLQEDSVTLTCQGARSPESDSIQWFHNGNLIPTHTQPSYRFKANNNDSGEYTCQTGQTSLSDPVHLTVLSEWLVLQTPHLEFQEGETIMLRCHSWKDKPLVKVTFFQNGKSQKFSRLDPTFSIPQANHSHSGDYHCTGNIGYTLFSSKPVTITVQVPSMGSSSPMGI
As to the kind of experiment: Octet (printed: Octet surface plasmon resonance).

In the next assay the target is T13, human CD16a F158 (human, UniProt P08637 17-208).
T13 construct: Allelic variant named only as F158; also called hCD16a F158
As to the kind of experiment: Octet (printed: Octet surface plasmon resonance).

For a further assay, the target named is T14, human CD16a V158 (human, UniProt P08637 17-208).
T14 construct: Allelic variant named only as V158; also called hCD16a V158
As to the kind of experiment: Octet (printed: Octet surface plasmon resonance).

For a further assay, the target named is T15, human CD32a H167 (human, UniProt P12318 36-218).
T15 construct: Allelic variant named only as H167; also called hCD32a H167
T15 sequence (looked up): T12 sequence (looked up) with R132H
As to the kind of experiment: Octet (printed: Octet surface plasmon resonance).

Another assay has as its target T16, cynomolgus PD-L1 (cynomolgus, UniProt G7PSE7 19-238).
T16 construct: Recombinant form not described; also called PD-L1 (Cynomolgus)
As to the kind of experiment: Octet (printed: Octet surface plasmon resonance), n = 2.

A further assay has as its target T17, mouse CD28 (mouse, UniProt P31041 20-149, limits assumed).
T17 construct: Recombinant form not described; also called CD28 (Mouse)
The description is as above.

The target in a further assay is T18, human PD-L1 (human, UniProt Q9NZQ7 19-238).
T18 construct: Recombinant form not described; also called PD-L1 (Human); B7-H1
Described as above.

Another assay addresses T19, human CD28 (human, UniProt P10747 19-152).
T19 construct: Recombinant form not described; also called CD28 (Human)
The assay is described as above.

The target in another assay is T20, mouse PD-L1 (mouse, UniProt Q9EP73 19-238, limits assumed).
T20 construct: Recombinant form not described; also called PD-L1 (Mouse)
Described as above.

The next assay concerns the target T21, cynomolgus CD16 (cynomolgus, UniProt Q8SPW2 17-208).
T21 construct: also called cyCD16
As to the kind of experiment: Octet (printed: Octet surface plasmon resonance).

T1 sequence (Q9NZQ7 19-290): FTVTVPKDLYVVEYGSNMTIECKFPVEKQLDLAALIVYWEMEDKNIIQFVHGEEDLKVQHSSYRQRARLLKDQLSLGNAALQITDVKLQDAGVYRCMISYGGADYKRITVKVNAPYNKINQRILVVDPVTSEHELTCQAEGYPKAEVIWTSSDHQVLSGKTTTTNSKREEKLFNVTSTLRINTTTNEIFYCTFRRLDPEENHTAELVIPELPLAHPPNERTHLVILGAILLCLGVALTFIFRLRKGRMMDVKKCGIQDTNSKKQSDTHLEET
T20 sequence (Q9EP73 19-238 limits assumed): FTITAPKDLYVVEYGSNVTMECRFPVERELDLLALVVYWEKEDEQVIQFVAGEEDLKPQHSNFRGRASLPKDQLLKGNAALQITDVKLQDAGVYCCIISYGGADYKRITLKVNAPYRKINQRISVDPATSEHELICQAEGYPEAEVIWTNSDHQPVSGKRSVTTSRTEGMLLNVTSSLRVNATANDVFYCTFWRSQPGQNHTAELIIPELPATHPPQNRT
T18 sequence (Q9NZQ7 19-238 limits assumed): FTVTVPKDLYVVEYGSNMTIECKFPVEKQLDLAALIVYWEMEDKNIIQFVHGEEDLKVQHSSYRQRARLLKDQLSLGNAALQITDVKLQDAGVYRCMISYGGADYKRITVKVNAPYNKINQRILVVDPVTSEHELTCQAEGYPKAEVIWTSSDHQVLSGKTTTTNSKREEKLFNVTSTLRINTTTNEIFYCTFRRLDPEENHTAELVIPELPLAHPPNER
T11 sequence (O75015 17-200 N65S limits assumed): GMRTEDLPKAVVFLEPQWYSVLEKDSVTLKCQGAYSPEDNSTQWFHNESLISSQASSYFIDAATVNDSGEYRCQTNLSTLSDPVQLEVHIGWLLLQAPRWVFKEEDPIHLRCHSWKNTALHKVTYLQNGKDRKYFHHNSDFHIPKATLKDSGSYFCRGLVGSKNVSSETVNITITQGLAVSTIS
T21 sequence (Q8SPW2 17-208 limits assumed): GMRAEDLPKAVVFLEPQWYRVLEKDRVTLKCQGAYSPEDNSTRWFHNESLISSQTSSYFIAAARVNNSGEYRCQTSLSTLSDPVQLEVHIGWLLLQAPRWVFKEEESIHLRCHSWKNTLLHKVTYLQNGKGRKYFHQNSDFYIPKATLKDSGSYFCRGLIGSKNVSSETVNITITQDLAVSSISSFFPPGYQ
Sequence of PD-L1 on engineered CHO-K1 artificial Antigen Presenting Cells (aAPC) (Q9NZQ7 19-290 limits assumed, change not shown): as the sequence (Q9NZQ7 19-290) above
T13 sequence (P08637 17-208 limits assumed): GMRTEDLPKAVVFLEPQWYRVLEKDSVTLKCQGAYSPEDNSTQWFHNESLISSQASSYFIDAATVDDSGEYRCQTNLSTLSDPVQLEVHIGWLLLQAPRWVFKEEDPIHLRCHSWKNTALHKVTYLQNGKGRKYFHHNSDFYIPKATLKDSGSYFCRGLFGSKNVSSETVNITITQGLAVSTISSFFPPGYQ
T3 sequence (P55899 24-297 limits assumed, chain 1 of 2): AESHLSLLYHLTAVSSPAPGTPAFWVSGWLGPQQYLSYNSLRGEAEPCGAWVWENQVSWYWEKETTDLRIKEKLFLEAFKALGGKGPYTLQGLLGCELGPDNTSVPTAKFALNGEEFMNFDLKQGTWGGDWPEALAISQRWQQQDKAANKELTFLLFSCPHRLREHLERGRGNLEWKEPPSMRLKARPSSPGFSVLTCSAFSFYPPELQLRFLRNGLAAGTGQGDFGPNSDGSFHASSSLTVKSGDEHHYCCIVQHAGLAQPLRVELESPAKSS
T3 sequence (P61769 21-119 limits assumed, chain 2 of 2): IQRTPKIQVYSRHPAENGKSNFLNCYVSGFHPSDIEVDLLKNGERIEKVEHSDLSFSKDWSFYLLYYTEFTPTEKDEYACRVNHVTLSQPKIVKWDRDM
T2 sequence (P12314 16-288 limits assumed): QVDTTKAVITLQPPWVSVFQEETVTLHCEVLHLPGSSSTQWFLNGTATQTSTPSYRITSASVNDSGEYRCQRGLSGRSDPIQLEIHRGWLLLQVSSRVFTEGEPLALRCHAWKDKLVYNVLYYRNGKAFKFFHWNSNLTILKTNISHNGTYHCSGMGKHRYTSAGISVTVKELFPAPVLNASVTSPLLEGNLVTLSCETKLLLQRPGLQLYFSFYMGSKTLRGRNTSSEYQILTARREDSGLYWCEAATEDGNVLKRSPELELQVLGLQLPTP
T16 sequence (G7PSE7 entry or part of it): as the sequence (Q9NZQ7 19-238 limits assumed) above, with A33T, A34S, S62N, R68Q, Q82R, F173L, T185A, T192I, H215L counted along it
T14 sequence (P08637 17-208 F176V limits assumed): as the sequence (P08637 17-208 limits assumed) above, with F160V counted along it
T17 sequence (P31041 20-149 limits assumed): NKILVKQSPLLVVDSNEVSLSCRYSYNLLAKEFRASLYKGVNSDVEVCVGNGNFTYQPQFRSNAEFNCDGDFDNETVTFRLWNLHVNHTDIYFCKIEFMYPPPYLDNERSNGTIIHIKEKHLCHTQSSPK

B1: S79 mAb (antibody, V domains shown)
VH: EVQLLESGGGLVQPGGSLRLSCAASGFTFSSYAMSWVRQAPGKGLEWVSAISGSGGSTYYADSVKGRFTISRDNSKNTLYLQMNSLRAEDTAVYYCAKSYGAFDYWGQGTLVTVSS
VL: QSALTQPASVSGSPGQSITISCTGTSSDVFRPPLVSWYQQHPGKAPKLMIYFASLRPSGVSNRFSGSKSGNTASLTISGLQAEDEADYYCSSWDHTGDGHVFGGGTKLTVL
notes: also called bivalent PD-L1 mAb based on the anti-PD-L1 arm S79
Take B1: the concentration for a half-maximal effect (EC50 (read off the curve)) in assay [1] was around 0.6 µg/mL. For the same molecule, the “EC50 (read off the curve): RLU in the PD-1/PD-L1 blockade bioassay (blocked partner m28)” value in assay [2] was around 0.02 µg/mL.

B2: AI3S79/N (bispecific antibody, human IgG1, kappa, lambda, L234A L235A)
heavy: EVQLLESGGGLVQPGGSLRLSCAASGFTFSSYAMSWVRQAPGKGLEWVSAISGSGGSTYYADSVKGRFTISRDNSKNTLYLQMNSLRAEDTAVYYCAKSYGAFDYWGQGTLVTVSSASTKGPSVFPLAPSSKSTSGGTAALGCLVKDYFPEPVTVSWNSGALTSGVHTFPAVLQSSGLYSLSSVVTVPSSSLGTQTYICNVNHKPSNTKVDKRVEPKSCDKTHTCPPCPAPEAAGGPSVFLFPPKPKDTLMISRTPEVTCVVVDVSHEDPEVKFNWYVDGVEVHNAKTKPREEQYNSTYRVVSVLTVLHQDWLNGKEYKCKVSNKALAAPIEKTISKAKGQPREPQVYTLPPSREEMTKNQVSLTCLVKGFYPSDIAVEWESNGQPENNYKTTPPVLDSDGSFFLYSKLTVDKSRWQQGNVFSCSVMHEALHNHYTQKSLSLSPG
light 1: not shown
light 2: QSALTQPASVSGSPGQSITISCTGTSSDVFRPPLVSWYQQHPGKAPKLMIYFASLRPSGVSNRFSGSKSGNTASLTISGLQAEDEADYYCSSWDHTGDGHVFGGGTKLTVLGQPKAAPSVTLFPPSSEELQANKATLVCLISDFYPGAVTVAWKADSSPVKAGVETTTPSKQSNNKYAASSYLSLTPEQWKSHRSYSCQVTHEGSTVEKTVAPTECS
notes: also called PD-L1xCD28 bsAb; PD-L1xCD28 κλ body
For B2, the Kd is 804 nM with human CD64; 7.1 nM in assay [3]; 8.6 nM in assay [4]; 0.06 nM in assay [5]; around 54 nM with cynomolgus CD28; 1.8 nM in the assay with cynomolgus PD-L1. For the same molecule, the dissociation constant Kd was 11100 nM in the assay with mouse CD28, 0.3 nM with human PD-L1, 54 nM with human CD28 and 0.79 nM in the assay with mouse PD-L1. In addition, in [1], the “EC50 (read off the curve)” value was around 0.9 µg/mL. In addition, the binding result in the assay with mouse CD32b, in the assay with mouse CD16, in the assay with mouse CD64, with human CD32b, with human CD16b NA2 and in the assay with human CD32a R167 was “no binding (tested: highest tested concentration: 2000 nM)” each time. Besides, the binding result in the assay with human CD16a F158, in the assay with human CD16a V158, in the assay with human CD32a H167 and with cynomolgus CD16 was “no binding (tested: highest tested concentration: 2000 nM)” in each case.
